Test results as given in patent publication US10197572B2, “Method and kit for detection of deltanoid-resistant leukemia cells and antibody for use therein” (WROCLAWSKIE CENTRUM BADAN EIT+ SP. Z O.O., priority 2014, dated 2019).

Columns and labels:
KG1 cells [1] = details: exposure even to high concentrations; cited from earlier work
KG1-CtrA cells [2] = experiment: expression of differentiation antigens CD11b and CD14 after exposure to deltanoids; type: cell-based; details: unpublished data
HL60 cells [3] = details: exposure even to low concentrations; cited from earlier work
KG1 cells [4] = experiment: expression of differentiation antigens CD11b and CD14 after exposure to deltanoids; type: cell-based; details: FIG. 4b
Description: According to the invention, cells from the KG1 acute myeloid leukemia line were used as a model for cells resistant to differentiation mediated by deltanoids. […] Effect on clonal proliferation and differentiation of human myeloid cells. J Clin Invest, 1986. 78: p. […] J Steroid Biochem Mol Biol, 2012. 132(3-5): p. 220-6]. The HL60 acute myeloid leukemia cell line, used in laboratories engaged in studying deltanoid-mediated differentiation, served as a sensitive line model [Marcinkowska, E. et al., Cell differentiating and anti-proliferative activity of side-chain modified analogs of 1,25-dihydroxyvitamin D3. J Steroid Biochem Mol Biol, 1998. 67(1): p. 71-8; Gallagher, R. et al., Characterization of the continuous, differentiating myeloid cell line (HL-60) from a patient with acute promyelocytic leukemia. Blood, 1979. 54: p. 713-733; Brackman, D. et al., Expression of cell surface antigens during the differentiation of HL-60 cells induced by 1,25-dihydroxyvitamin D3, retinoic acid and DMSO. Leuk Res, 1995. 19: p. 57-64].
Studying susceptibility to differentiation mediated by deltanoids is done in a number of ways. One of these is observing the appearance of antigens typical for macrophages on the surface of deltanoid (calcitriol or analogs) treated cells, serving important functions for the macrophages. […]

KG1 cells [5] = experiment: library screening with the ELISA method on whole cells; type: binding; details: FIG. 1, background subtracted
Description: The OD450-OD650 signal informs of the binding strength of the tested antibody to KG1 cells (more particularly: of the amount of the antibody bound to the antigen, being then recognized by a secondary HRP-conjugated antibody). Background signal, namely OD450-OD650 for the control with only the secondary antibody, was then subtracted from all measurements. The numbers and letters indicate the position on a 96-well plate.
(§1) Screening the library in order to find antibodies in an scFv format, specifically interacting with the KG1 line, was done based on ELISA according to the Tomlinson protocol (phages with envelope protein fused with scFv after expression on a 96-well plate served as the primary antibody for ELISA). Again, the cells were not immobilized on a Nunc U plate but only centrifuged in mild conditions. The identified positive clones were expressed in the form of solubilized scFv (without fusion with a phage envelope protein) and purified on a protein A resin, and then tested on KG1 cells and HL60 cells obtaining desired results (specificity against KG1 line) (FIG. 1).

KG1-CtrA cells [6] = experiment: flow cytometry, direct labeling with FITC-labeled scFv; type: binding; details: 1 μg 6B/FITC, 5×10^5 KG1-CtrA cells, FIG. 5
Description: (§2) FITC-labeled 6B and 8F antibodies were used to label the HL60, KG1 and KG1-CtrA cells. To this end, 5×10^5 cells of each were suspended in 50 μl of PBS buffer without calcium and magnesium ions with 0.1% BSA. Either 1 μg of the 8F/FITC protein or 1 μg of the 6B/FITC protein were added to each suspension. Samples were incubated for 45 minutes in darkness on ice, then washed with PBS without calcium and magnesium ions, supplemented with 0.1% BSA and subsequently fluorescence of the samples was read by flow cytometry.

HL60 cells [7] = experiment: ELISA on whole cells; type: binding
Description: as §1
At the same time, it was observed that the HL60 cells spontaneously convert the substrate for HRP conjugated with the secondary antibody, giving results that need to be analyzed with caution. To this end, the reaction for HL60 was stopped sooner but the results required additional confirmation with a different method anyway.

HL60 cells [8] = experiment: flow cytometry, sandwich labeling with scFv and FITC-conjugated secondary antibody; type: binding; details: HL60 + 6B + anti-c-myc-FITC, sandwich method
Description: (§3) As a confirmation of the ELISA assays, the flow cytometry analysis was conducted, wherein the cells were labeled with a FITC-conjugated antibody in an scFv format (direct labeling) or with an antibody in an scFv format and then with a FITC-conjugated secondary antibody recognizing the former (sandwich method).
(§4) Optimal dilution of the secondary antibody in the sandwich method is 1:100 or 1:50 (10^5 cells).

KG1 cells [9] = experiment: as above; type: binding; details: KG1 + 6B + anti-c-myc-FITC, sandwich method
Description: as §3, §4

HL60 cells [10] = experiment: flow cytometry, direct labeling with FITC-labeled scFv; type: binding
Description: as §2

KG1 cells [11] = experiment: as above; type: binding
Description: as §2

## C=C1/C(=C\C=C2/CCC[C@]3(C)[C@@H]([C@H](C)CCCC(C)(C)O)CC[C@@H]23)C[C@@H](O)C[C@@H]1O [calcitriol]
KG1 cells [1]
  CD11 b and CD14 expression: do not alter
KG1-CtrA cells [2]
  expression of differentiation antigens CD11 b and CD14: significantly increase expression
HL60 cells [3]
  expression of CD14 and CD11b antigens: significantly increase expression
KG1 cells [4]
  differentiation after exposure: lack of differentiation

B1: 6B: scFv of SEQ ID NO: 1, which specifically recognizes KG1 cells line, obtained by phage display (protein)
scFv: EVQLLESGGGLVQPGGSLRLSCAASGFTFSSYGMSWVRQAPGKGLEWVSTIRTAGRATEYADSVKGRFTISRDNSKNTLYLQMNSLRAEDTAVYYCAKSPQTFDYWGQGTLVTVSSGGGGSGGGGSGGGGSTDIQMTQSPSSLSASVGDRVTITCRASQSISSYLNWYQQKPGKAPKLLIYRASRLQSGVPSRFSGSGSGTDFTLTISSLQPEDFATYYCQQRLTIPITFGQGTKVEIKRAAA
modifications: antibody 6B
KG1 cells [5]
  OD450-OD650 signal (binding strength to KG1 cells): clearly prominent
KG1-CtrA cells [6]
  presence of the 6B-binding antigen: lost
HL60 cells [7]
  ELISA signal in comparison to control with non-specific scFv: no increased signal
HL60 cells [8]
  FITC+: GeoMean: 9.8
  FITC+: mean: 10.7
  FITC+: median: 8.9
KG1 cells [9]
  FITC+: % Vis: 100.0%
  FITC+: GeoMean: 28.1
  FITC+: mean: 29.4
  FITC+: median: 28.4

B2: 8F: scFv of SEQ ID NO: 2, negative control, same framework as 6B, differing only in hypervariable fragments (protein)
scFv: EVQLLESGGGLVQPGGSLRLSCAASGFTFSSYGMSWVRQAPGKGLEWVSWIDASGTRTQYADSVKGRFTISRDNSKNTLYLQMNSLRAEDTAVYYCAKLFRSFDYWGQGTLVTVSSGGGGSGGGGSGGGGSTDIQMTQSPSSLSASVGDRVTITCRASQSISSYLNWYQQKPGKAPKLLIYRASSLQSGVPSRFSGSGSGTDFTLTISSLQPEDFATYYCQQGQTLPITFGQGTKVEIKRAAA
modifications: antibody 8F
HL60 cells [10]
  recognition of deltanoid-sensitive leukemia cells: not recognizing
KG1 cells [11]
  recognition of deltanoid-resistant leukemia cells: not recognizing
